Reference: patent US20090148907A1, “NOVEL FRUCTOFURANOSIDASE ACTIVITY FOR OBTAINING THE PREBIOTIC OLIGOSACCHARIDE 6-KESTOSE” (CONSEJO SUPERIOR DE INVESTIGACIONES CIENTIFICAS, priority 2005, published 2009)

Columns and labels:
Format in all cases: biochemical
[1] = Fructofuranosidase activity of fractions during purification; settings: eluted at 0.2 M of salt, DEAE-Sephacel pH 5
Method: The cell free fraction was obtained by centrifugation (F-0) of a culture of S. occidentalis ATCC26077 grown at 29° C. and 235 rpm. Fructofuranosidase activity was assayed in the latter, determining the glucose release on different substrates. A colorimetric assay and the standard methodology were used. The released glucose was quantified using the glucose oxidase-peroxidase coupled reaction: 0.4 ml of the solution to be determined was mixed with 0.1 ml of A:B (20:1) solution (A: 0.85 U/ml glucose oxidase, 0.40 U/ml peroxidase in sodium phosphate buffer pH 5; B: 0.6% O-dianisidine). It was incubated for 30 minutes at 37° C. and spectrophotometrically quantified at 450 nm. A standard glucose curve (0 to 100 μg/ml) was used. The fructofuranosidase activity unit is defined in μmol/ml min of glucose determined in the described conditions.
For the purification of the enzyme, 2 liters of extracellular fraction of S. occidentalis, with a fructofuranosidase activity of 0.58 U/ml, were used to begin. The following method was used:
1) Concentration of the extracellular fraction using a tangential filtration system (30 kDa fitter) followed by dialysis against 20 mM HCl-Tris pH 7 (buffer A) for 2 hours at a temperature of 4° C. […]
3) Ion exchange chromatography to pH 5. […] The fructofuranosidase activity determined as previously indicated eluted at 0.2 M of salt and was 0.33 U (F-3).

[2] = Fructofuranosidase activity at different pH and temperatures; settings: solution of pure protein, on sucrose
Method: The fructofuranosidase activity was assayed at different pH and temperatures. Maximum activity levels were obtained in a pH range comprised, between 5 and 6 units at 50° C. and at a temperature of 40 and 55° C.
FIG. 3 indicates the enzymatic activity in function of the pH and of the temperature, showing the corresponding maximums. The assays were performed on sucrose using a solution of pure protein. 100% corresponds to an activity of 5.59 U/ml. FIG. 3A: fructofuranosidase activity was determined at different pHs (3-9 pH units), an assay temperature of 50° C. and sodium citrate, sodium phosphate and HCl-Tris buffer (all of them 100 mM) for the pH range of 3-4.5, 5.0-7.5 and 8.0-9.0, respectively. FIG. 3B: the temperature assay (30-70° C.) was performed in 50 mM sodium phosphate pH 5.5.

[3] = target: T1, fructofuranosidase of S. occidentalis (pure enzyme F-3) (Schwanniomyces occidentalis, UniProt P24133); assay: Transfructosidase (transglycosylation) activity of pure enzyme F-3 on sucrose, HPLC; settings: after 144 hours at 50° C, high sucrose concentration
T1 construct: the enzyme object of the invention is extracellularly released; endogenous in cells; host or cells: Schwanniomyces occidentalis culture supernatant; concentrated (F-1), then DEAE-Sephacel at pH 7 (F-2) and at pH 5 (F-3)
T1 sequence (P24133 whole entry, looked up): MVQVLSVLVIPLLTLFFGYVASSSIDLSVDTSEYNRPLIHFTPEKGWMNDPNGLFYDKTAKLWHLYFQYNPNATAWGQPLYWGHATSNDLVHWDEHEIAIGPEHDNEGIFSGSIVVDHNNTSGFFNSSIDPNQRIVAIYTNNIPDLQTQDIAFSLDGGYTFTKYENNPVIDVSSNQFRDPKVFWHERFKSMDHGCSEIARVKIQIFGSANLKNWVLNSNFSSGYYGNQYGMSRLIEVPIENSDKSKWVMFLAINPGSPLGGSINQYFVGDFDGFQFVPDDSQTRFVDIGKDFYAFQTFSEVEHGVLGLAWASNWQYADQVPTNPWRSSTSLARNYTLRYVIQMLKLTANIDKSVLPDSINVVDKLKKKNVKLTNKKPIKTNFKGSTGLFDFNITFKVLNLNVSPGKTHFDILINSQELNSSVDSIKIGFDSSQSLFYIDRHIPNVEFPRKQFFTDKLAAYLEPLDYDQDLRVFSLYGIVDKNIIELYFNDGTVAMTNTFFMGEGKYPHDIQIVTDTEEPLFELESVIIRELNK
Method: The transglycosylation activity of the pure enzyme (fraction F-3) was assayed. A reaction was prepared using a high concentration of sucrose (510 g/l) and a final enzymatic activity in the reaction mixture of approximately 0.5 U/ml. […] It is seen that the profile of the obtained products is very similar in both cases, specifically the 6-kestose/1-kestose ratio that was obtained was 3.3.
After 144 hours of reaction, 42.6 g/l of FOS were obtained. The total percentage (w/w) of fructooligosaccharides was 8.4% this value being with respect to the total weight of carbohydrates in the medium.
A high concentration solution of sucrose ([…]) in 0.2 M sodium acetate buffer pH 5.6 was prepared. The fructofuranosidase was added until a final concentration in the reaction mixture of 0.5 U/ml (one unit U is the enzymatic activity corresponding to releasing a micromole of reducing sugars per minute, using 100 g/l of sucrose as substrate, in 0.2 M sodium acetate buffer pH 5.6, at 50° C.). The reaction mixture was incubated for 144 hours at 50° C., with orbital stirring at 700 rpm. Aliquots were extracted at different times, incubated for 5 minutes at 80° C. to inactivate the enzyme, diluted 1:2 (v/v) with water centrifuged for 5 minutes at 6000 rpm in an eppendorf tube with a 0.45 μm filter and analyzed by HPLC liquid chromatography. The profile of the products formed is seen in FIG. 7. Two trisaccharides were obtained: a majority trisaccharide, identified as 6-kestose, and another minority trisaccharide, identified as 1-kestose. At the final reaction time (144 h), the composition of the system was: 12.7% fructose, 14.80/glucose. 64.1% sucrose, 2.4% 1-kestose and 5.9% 6-kestose).

B1: F-3: purified fructofuranosidase of S. occidentalis with transfructosidase activity, SEQ. ID. NO: 1, 535 amino acids (protein, listed as Debaryomyces occidentalis)
chain: MVQVLSVLVIPLLTLFFGYVASSSIDLSVDTSEYNRPLIHFTPEKGWMNDPNGLFYDKTAKLWHLYFQYNPNATAWGQPLYWGHATSNDLVHWDEHEIAIGPEHDNEGIFSGSIVVDHNNTSGFFNSSIDPNQRIVAIYTNNIPDLQTQDIAFSLDGGYTFTKYENNPVIDVSSNQFRDPKVFWHEDSNQWIMVVLKSQEYKIQIFGSANLKNWVLNSNFSSGYYGNQYECPGLIEVPIENSDKSKWVMFLAINPGSPLGGSINQYFVGDFDGFQFVPDDSQTRFVDIGKDFYAFQTFSEVEHGVLGLAWASNWQYADQVPTNPWRSSTSLARNYTLRYVHTNAETKQLTLIQNPVLPDSINVVDKLKKKNVKLTNKKPIKTNFKGSTGLFDFNITFKVLNLNVSPGKTHFDILINSQELNSSVDSIKIGFDSSQSSFYIDRHIPNVEFPRKQFFTDKLAAYLEPLDYDQDLRVFSLYGIVDKNIIELYFNDGTVAMTNTFFMGEGKYPHDIQIVTDTEEPLFELESVIIRELNK
**Q.** What does the source list for B1?
**A.** Fructofuranosidase activity [1]: 0.33 U; Activity corresponding to 100% in FIG. 3 [2]: 5.59 U/ml; Transfructosidase activity retained (in words) [3]: still maintains transfructosidase activity
